# Results as given in patent US20240059799A1 (Pfizer, published 2024).
# Substitutions are numbered along the chain they refer to.
# T1: recombinant human TL1A (human, UniProt O95150 71-251)
# T1 chain: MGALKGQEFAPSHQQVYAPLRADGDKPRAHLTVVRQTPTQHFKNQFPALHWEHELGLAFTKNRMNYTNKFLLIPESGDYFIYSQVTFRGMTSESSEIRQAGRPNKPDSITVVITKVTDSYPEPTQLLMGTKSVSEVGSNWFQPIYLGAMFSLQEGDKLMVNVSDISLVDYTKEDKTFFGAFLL
# T2: recombinant human TL1A (human, UniProt O95150 71-251)
# T2 chain: T1 chain
# T3: human IL-12 (human, UniProt P29460 23-328; P29459 23-219)
# T3 sequence 1: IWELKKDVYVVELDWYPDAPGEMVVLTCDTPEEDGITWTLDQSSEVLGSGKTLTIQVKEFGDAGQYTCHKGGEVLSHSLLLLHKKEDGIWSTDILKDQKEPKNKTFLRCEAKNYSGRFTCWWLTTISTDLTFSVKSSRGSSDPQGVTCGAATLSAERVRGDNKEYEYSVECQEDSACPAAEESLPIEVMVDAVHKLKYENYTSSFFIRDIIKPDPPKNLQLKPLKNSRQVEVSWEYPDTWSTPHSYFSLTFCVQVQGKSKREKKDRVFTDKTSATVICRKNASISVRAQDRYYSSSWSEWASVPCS
# T3 sequence 2: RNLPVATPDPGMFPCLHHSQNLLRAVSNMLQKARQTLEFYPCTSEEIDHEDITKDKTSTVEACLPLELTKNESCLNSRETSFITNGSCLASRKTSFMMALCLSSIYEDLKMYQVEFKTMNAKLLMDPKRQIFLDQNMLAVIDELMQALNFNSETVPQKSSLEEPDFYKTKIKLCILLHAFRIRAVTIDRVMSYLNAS
# T4: human IL-23 (human, UniProt P29460 23-328; Q9NPF7 20-189)
# T4 sequence 1: T3 sequence 1
# T4 sequence 2: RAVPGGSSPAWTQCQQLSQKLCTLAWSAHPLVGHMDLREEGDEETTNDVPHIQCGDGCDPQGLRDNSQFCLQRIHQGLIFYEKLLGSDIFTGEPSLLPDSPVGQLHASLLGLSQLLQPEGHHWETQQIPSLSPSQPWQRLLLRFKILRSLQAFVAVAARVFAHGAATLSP
# T5: full-length human TL1A on CHO-K1 cells (human, UniProt O95150 1-251)
# T5 construct: whole, on cells; also called cells over-expressing human TL1A
# T5 sequence (looked up): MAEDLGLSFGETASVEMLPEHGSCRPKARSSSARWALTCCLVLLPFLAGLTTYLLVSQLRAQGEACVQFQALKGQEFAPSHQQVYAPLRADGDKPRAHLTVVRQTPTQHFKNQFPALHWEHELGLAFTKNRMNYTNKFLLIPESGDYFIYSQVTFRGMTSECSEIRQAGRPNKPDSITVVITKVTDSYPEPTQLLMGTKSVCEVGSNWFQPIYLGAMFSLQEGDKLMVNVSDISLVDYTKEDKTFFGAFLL
# B1: TL1A-0371 (bispecific antibody)
# heavy 1: QVQLVQSGAEVKKPGASVKVSCKASGYDYTYYGISWVRQAPGQGLEWMGWISTYNTGTHYAPSLQGRVTMTTDTSTSTAYMELRSLRSDDTAVYYCARESYYGSGAFRGGMDVWGQGTTVTVSSASTKGPSVFPLAPSSKSTSGGTAALGCLVKDYFPEPVTVSWNSGALTSGVHTFPAVLQSSGLYSLSSVVTVPSSSLGTQTYICNVNHKPSNTKVDKKVEPKSCDKTHTCPPCPAPEAAGAPSVFLFPPKPKDTLMISRTPEVTCVVVDVSHEDPEVKFNWYVDGVEVHNAKTKPREEQYNSTYRVVSVLTVLHQDWLNGKEYKCKVSNKALPAPIEKTISKAKGQPREPQVCTLPPSREEMTKNQVSLWCLVKGFYPSDIAVEWESNGQPENNYKTTPPVLDSDGSFFLYSKLTVDKSRWQQGNVFSCSVLHEALHSHYTQKSLSLSPGK
# heavy 2: not shown
# light: not shown
# notes: also called TL1A-0371 MBsAb; not shown: human IgG1 constant region with effector-minimizing, KiH and LS mutations
# B2: TL1A-0368 (bispecific antibody)
# heavy 1: B1 heavy 1
# heavy 2: QVQLVQSGAEVKKPGASVKVSCKASGYTFTSYGISWVRQAPGQGLEWMGWISAYNGNTNYAQKLQGRVTMTTDTSTSTAYMELRSLRSDDTAVYYCARESYYGSEAFRAGMDVWGQGTTVTVSS
# light: not shown
# notes: not shown: human IgG1 constant region with effector-minimizing, KiH and LS mutations
# B3: TL1A-0370 (bispecific antibody)
# heavy 1: B1 heavy 1
# heavy 2: B2 heavy 2 with Y101S
# light: not shown
# notes: also called TL1A-0370 MBsAb; not shown: human IgG1 constant region with effector-minimizing, KiH and LS mutations
# B4: TL1A-0373 (bispecific antibody)
# heavy 1: B1 heavy 1
# heavy 2: not shown
# light: not shown
# notes: as for B2
# B5: p40TL1A-0018 bispecific antibody (bispecific antibody, human IgG1, kappa)
# heavy 1: EVQLVQSGAEVKKPGESLKISCKGSGYSFTTYWLGWVRQMPGKGLDWIGIMSPVDSDIRYSPSFQGQVTMSVDKSITTAYLQWNSLKASDTAMYYCARRRPGQGYFDFWGQGTLVTVSSASTKGPSVFPLAPSSKSTSGGTAALGCLVKDYFPEPVTVSWNSGALTSGVHTFPAVLQSSGLYSLSSVVTVPSSSLGTQTYICNVNHKPSNTKVDKKVEPKSCDKTHTCPPCPAPEAAGAPSVFLFPPKPKDTLMISRTPEVTCVVVDVSHEDPEVKFNWYVDGVEVHNAKTKPREEQYNSTYRVVSVLTVLHQDWLNGKEYKCKVSNKALPAPIEKTISKAKGQPREPQVYTLPPSREEMTKNQVSLWCLVKGFYPSDIAVEWESNGQPENNYKTTPPVLDSDGSFFLYSKLTVDKSRWQQGNVFSCSVLHEALHSHYTQKSLSLSPGK
# light 1: not shown
# heavy 2: B1 heavy 1 with C356Y, W373S, L375A, Y414V
# light 2: not shown
# B6: p40TL1A-0021 bispecific antibody (bispecific antibody)
# heavy 1: B5 heavy 1 with D223R, W368T, K411R
# light 1: not shown
# heavy 2: B1 heavy 1 with D228E, C356Y, W373T, L375E
# light 2: not shown
# B7: p40TL1A-0032 bispecific antibody (bispecific antibody)
# heavy 1: B5 heavy 1 with L130K, V187S, Y351C
# light 1: DIQMTQSPSSLSASVGDRVTITCRASQGISSWLAWYQQKPEKAPKSLIYAASSLQSGVPSRFSGSGSGTDFTLTISSLQPEDFATYYCQQYNIYPYTFGQGTKLEIKRTVAAPSVFIFPPSDEQLKSGTASVSCLLNNFYPREAKVQWKVDNALQSGNSQESVTEQDSKDSTYSLDSTLTLSKADYEKHKVYACEVTHQGLSSPVTKSFNRGEC
# heavy 2: B1 heavy 1 with L135E, S190G, C356Y, S361C, W373S, L375A, Y414V
# light 2: not shown
# B8: p40TL1A-0024 bispecific antibody (bispecific antibody, human IgG1, kappa)
# heavy 1: B5 heavy 1 with W368T, K411R
# light 1: not shown
# heavy 2: B1 heavy 1 with C356Y, W373T, L375E
# light 2: not shown
# B9: [xTL1A]-0360 (antibody, human IgG1, kappa, V domains shown)
# VH: not shown
# VL: DIQMTQSPSSLSASVGDRVTITCRASQSVSSYLAWYQQKPGKAPKLLIYDASNRATGVPSRFSGSGSGTDFTLTISSLQPEDFATYYCQQRSNWPWTFGQGTKVEIKR
# notes: bivalent disabled antibody, IgG1 effector-function-minimized/kappa
# Biological target: T1, recombinant human TL1A
# Test: cell-based or functional assay
row,NFκB Bioassay IC50 [nM],Binder
1,1.37,B1
2,1.56,B2
3,1.46,B3
4,1.66,B4

# Biological target: T2, recombinant human TL1A
# Test: cell-based or functional assay
NF-κB assay IC50 (TF-1 reporter cells) [nM],"NF-κB assay, Bioactivity relative to TL1A-0372 [fold]",Binder
0.105,1,B5
0.0509,0.5,B6
0.131,1.3,B7
0.106,1,B8

# Biological target: T3, human IL-12
# Test: cell-based or functional assay
"KIT-225 STAT4 assay IL-12, Bioactivity relative to p40-0003 [fold]",KIT-225 STAT4 assay IL-12 IC50 [nM],Binder
2,6.6,B5
0.9,3,B6
1.4,4.6,B7
1.3,4.3,B8

# Biological target: T4, human IL-23
# Test: cell-based or functional assay
"KIT-225 STAT3 assay IL-23, Bioactivity relative to p40-0003 [fold]",KIT-225 STAT3 assay IL-23 IC50 [nM],Binder
2.1,3.4,B5
1.4,3.4,B6
2.3,3.8,B7
2.2,3.6,B8

# Biological target: T1, recombinant human TL1A
# Test: SPR, recombinant human TL1A
Kd [nM],koff [s⁻¹],kon [M⁻¹ s⁻¹],Binder
0.261,4.36e-05,168000,B1
0.242,4.61e-05,191000,B2
0.303,5.73e-05,190000,B3
0.285,4.95e-05,173000,B4

# Biological target: T6, bovine serum albumin (bovine, UniProt P02769 25-607)
# T6 construct: also called BSA
# Test: direct binding ELISA on plate-coated BSA (1 ug/mL), anti-human IgG-Fc HRP, OD450
# Experimental: (§1) For the direct binding ELISA method to HSA or BSA, 96-well high binding plates (Corning, product number 3590) were coated with 1 μg/mL recombinant HSA or BSA in 100 μL/well in PBS overnight at 4° C. Plates were then blocked in PBS+0.02% casein solution and washed with PBS+0.05% Tween-20 following standard ELISA protocol. […] Plates were washed with PBS+0.05% Tween-20 following standard ELISA protocol, and goat anti-human IgG-Fc HRP conjugated secondary antibody (Pierce, #31413) diluted to 1:10,000 in assay buffer was added to plates and incubated for 1 hour at room temperature. Next, the plates were washed with PBS+0.05% Tween-20 following standard ELISA protocol, and then TMB substrate (BioFX Laboratories, catalog number TMBW-0100-01) was added to plates.
# (§2) Reactions were stopped after approximately 5 minutes by adding 0.18 M ortho-phosphoric acid to each well and absorbance was read at 450 nm. […] For this method, samples diluted to 0.3 mg/mL were dispensed into the sample tray of a MicroCal VP-Capillary DSC with Autosampler (Malvern Instruments, Inc.), equilibrated for 5 minutes at 10° C. and then scanned up to 110° C. at a rate of 100° C. per/hour. A filtering period of 16 seconds was selected. Raw data was baseline corrected and the protein concentration was normalized. Origin Software 7.0 (Origin Lab Corporation, Northampton, MA) was used to fit the data to an MN2-State Model with an appropriate number of transitions.
# T6 sequence (P02769 25-607 limits assumed): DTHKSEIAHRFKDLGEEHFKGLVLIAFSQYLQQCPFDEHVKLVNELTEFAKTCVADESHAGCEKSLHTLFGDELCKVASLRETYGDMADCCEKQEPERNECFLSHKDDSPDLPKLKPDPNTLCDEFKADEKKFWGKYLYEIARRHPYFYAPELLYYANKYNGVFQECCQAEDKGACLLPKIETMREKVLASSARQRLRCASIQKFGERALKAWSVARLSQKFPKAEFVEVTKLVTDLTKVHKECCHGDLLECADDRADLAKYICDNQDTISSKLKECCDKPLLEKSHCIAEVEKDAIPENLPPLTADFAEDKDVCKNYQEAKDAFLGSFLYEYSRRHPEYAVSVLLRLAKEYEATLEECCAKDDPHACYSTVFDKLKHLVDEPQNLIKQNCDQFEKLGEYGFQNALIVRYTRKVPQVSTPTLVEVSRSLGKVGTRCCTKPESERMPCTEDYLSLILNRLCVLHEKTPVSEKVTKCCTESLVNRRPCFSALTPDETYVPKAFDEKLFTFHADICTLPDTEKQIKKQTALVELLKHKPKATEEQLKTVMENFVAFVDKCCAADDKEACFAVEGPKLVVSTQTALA
row,binding result,Binder
1,no binding (tested: 1e-6 M),B1
2,no binding (tested: 1e-6 M),B2
3,no binding (tested: 1e-6 M),B3
4,no binding (tested: 1e-6 M),B4

# Biological target: T7, human serum albumin (human, UniProt P02768 25-609)
# T7 construct: also called HSA
# Test: direct binding ELISA on plate-coated HSA (1 ug/mL), anti-human IgG-Fc HRP, OD450
# Experimental: as §1, §2
row,binding result,Binder
1,no binding (tested: 1e-6 M),B1
2,no binding (tested: 1e-6 M),B2
3,no binding (tested: 1e-6 M),B3
4,no binding (tested: 1e-6 M),B4

# Biological target: T5, full-length human TL1A on CHO-K1 cells
# Test: flow cytometry on CHO-K1 cells stably expressing full-length human TL1A, PE anti-human IgG, median fluorescent intensity
# Experimental: A cell binding assay was performed to examine if the panel of [xTL1A] bivalent antibody variants could bind to human TL1A over-expressed on the cell surface. […] [xTL1A] bivalent antibody variants were incubated with cells on ice for 30-60 minutes at a concentration of either 1 μg/mL or 20 μg/mL. Cells were pelleted by centrifugation at 1500 RPM for 5 minutes at 4° C. and supernatant was discarded by aspiration. The cells were washed three times with DPBS with 4% FBS buffer as described. Cells were resuspended in 100 μL of PE-anti-human IgG (Life technologies Catalog number H10104) diluted 1:500 in DPBS with 4% FBS buffer and incubated on ice for 15 minutes. Cells were washed three times as described and resuspended in 200 μL of DPBS with 4% FBS buffer, then run on a flow cytometry instrument.
row,binding result,Binder
1,no binding (tested: 20 ug/mL),B9
